Test results: paper PMC4912634

Target: tubulin heterodimer (porcine/bovine brain tubulin) (not stated (porcine or bovine brain)) (UniProt Q6B856)
Experiment: ITC; PN2-3 proteins/peptides titrated into tubulin in the cell; 15 °C; 1xBRB80 (80 mM PIPES-K, 1 mM MgCl2, 1 mM EGTA, pH 6.8); one set of binding sites model; tubulin 9 μM for wild type and mutant PN2-3

Kd: 4.8 µM
B1: PN2-3C peptide (PN2-3's C-terminus, aa 372-394 of CPAP) (peptide)
peptide: KQPFLKRGEGLARFTNAKSKFQK
